Patent US20240148841

Target: human IgG (of human serum; IgG against AAV8 in AAV8 positive human serum pools CP16 and P1)

B1: IdeSORK (Xork) IgG protease (protein)
chain: LSKRKLLKKIEKKDTSSVLTQKKQTKTLWADGVQVDDKDFKPSTENFGTNYLAAEYGIGKGYYDINKKFDGTDDDLCSGVVAANQLHWWLDRNKDYIEKYRQQSKDNGVTIGNTDIFELNKLHDEDQSNFFDFIKKSFGNKFLQPERLLNMYINGYGYLTSQDKAKTSQPSPSKLNFFQKVFKNNLLTDKTPINDIDEFSSQTKNALQNHKVLAVSFASIKNRGLGHVVTVWGADFDENGKVVALYVTDSDDRSKNIGNAKLGMKKLRIEVSAQDSSTIKLTGFEDKNSGGSLRHLYSLSTGEQIWKKYFEETEKERIRLEEEADKAKLEQDRIQKEAEEKLALEKAEKERIRLEEEADKAKLEQDRIQKEAEEKLALEKAEKERIRLEEEADKAKLEQDRIQKEAEEKLALEKAEKERIRLEEEADKAKLEQDRIQKEAEEKLALEKAEKERIRLEEEAAKAKLEQEKQIATAPQPDKKQENTTSEQEKPAPTELPPLVNKADETETPRETAPDQTPSATNTFRKILPKMNAVSQFFSQLMGTIQIVFAFILKIFK
  cleavage of human IgG in vitro: Xork cleaves human IgG in vitro with the same specificity and mechanism as IdeS
